How the values were obtained:
[1] = target: soluble recombinant protein CD73; assay: cell-based or functional assay
[2] = target: T1, Human CD73 on CHOK1-huCD73-3F4 cells overexpressing CD73 (human, UniProt P21589 27-549); assay: cell-based or functional assay
T1 sequence (looked up): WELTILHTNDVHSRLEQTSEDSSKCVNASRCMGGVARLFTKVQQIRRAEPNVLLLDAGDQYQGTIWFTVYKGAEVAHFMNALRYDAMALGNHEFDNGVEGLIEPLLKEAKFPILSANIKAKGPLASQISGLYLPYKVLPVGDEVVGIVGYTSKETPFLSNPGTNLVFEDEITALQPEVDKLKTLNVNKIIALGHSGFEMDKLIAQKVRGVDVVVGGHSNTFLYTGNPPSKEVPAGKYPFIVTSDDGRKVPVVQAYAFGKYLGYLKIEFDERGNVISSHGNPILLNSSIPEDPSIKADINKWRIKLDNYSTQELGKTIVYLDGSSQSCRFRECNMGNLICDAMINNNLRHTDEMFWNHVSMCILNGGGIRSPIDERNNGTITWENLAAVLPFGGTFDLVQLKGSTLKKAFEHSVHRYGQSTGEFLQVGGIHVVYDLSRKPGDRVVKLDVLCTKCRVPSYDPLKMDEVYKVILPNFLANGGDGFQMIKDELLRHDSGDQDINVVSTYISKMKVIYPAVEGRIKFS

Mouse CD73 antigen = target: T2, Mouse CD73 antigen (mouse, UniProt Q61503 29-549, limits assumed); assay: SPR (Biacore 8K), antibody captured on anti-human capture CM5 chip, antigen as analyte
T2 construct: Antigen used as analyte in SPR
T2 sequence (looked up): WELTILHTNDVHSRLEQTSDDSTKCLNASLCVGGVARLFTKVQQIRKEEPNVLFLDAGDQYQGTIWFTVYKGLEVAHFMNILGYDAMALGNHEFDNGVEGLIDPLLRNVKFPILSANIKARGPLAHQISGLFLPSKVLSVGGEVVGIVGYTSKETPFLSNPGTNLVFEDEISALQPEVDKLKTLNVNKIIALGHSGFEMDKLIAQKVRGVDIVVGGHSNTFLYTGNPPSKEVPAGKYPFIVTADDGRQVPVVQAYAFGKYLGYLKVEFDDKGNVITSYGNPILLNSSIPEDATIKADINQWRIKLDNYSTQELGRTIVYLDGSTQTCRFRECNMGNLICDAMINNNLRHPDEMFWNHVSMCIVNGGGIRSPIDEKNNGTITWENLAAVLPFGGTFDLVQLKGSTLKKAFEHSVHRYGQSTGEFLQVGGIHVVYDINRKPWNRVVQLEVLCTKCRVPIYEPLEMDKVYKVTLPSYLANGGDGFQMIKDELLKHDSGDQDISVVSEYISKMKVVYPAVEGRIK
Procedure: (§1) The experimental method is as follows:
(§2) An Anti-Human Capture-CM5 chip (GE, #BR-1005-30) was prepared using coupling methods of a Human Antibody Capture Kit (GE, #BR-1008-39) and an amino coupling kit (GE, BR-1000-50). The chip was equilibrated at room temperature for about 20-30 min and loaded into a Biacore 8K instrument. The antigen and antibody were diluted to an experimental working concentration using an equilibration buffer. The antigen was diluted with an equilibrium buffer to 50 nM, and then diluted three-fold for seven concentration gradients, and two zero concentrations (i.e., the equilibrium buffer) and one repeat concentration (typically the lowest concentration repeat) were set. Experimental analysis was performed on 10 antigen concentrations (2 zero concentrations, 7 gradient concentrations, and 1 repeated concentration) in a cyclic manner according to an order of antibody, antigen, and regeneration. The antigen injection flow rate was 30 μL/min, the binding time was 120 s, and the dissociation time was 600 s. Following the analysis, the data was analyzed using the corresponding analysis program to confirm that there was no obvious reference binding. Using Kinetics and a 1:1 binding model, the data was fit to obtain the kinetic related parameters Ka, Kd, and KD values of the bispecific antibodies.

Mouse CD39 antigen = target: T3, Mouse CD39 antigen (mouse, UniProt P55772 38-478); assay: as above
T3 construct: Antigen used as analyte in SPR
T3 sequence (looked up): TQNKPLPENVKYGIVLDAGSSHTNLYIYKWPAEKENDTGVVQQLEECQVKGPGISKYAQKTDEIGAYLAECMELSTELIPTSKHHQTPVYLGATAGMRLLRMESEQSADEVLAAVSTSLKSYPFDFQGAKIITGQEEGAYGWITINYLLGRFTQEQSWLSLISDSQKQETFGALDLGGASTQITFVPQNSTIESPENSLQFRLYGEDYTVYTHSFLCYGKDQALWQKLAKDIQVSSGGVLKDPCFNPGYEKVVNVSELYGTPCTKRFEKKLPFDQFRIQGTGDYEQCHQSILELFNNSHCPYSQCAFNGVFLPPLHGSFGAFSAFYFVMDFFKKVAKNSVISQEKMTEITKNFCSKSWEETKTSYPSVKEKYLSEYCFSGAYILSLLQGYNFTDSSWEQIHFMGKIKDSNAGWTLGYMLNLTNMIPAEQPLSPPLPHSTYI
Procedure: as §1, §2

Sequence of soluble recombinant protein CD73 (P21589 whole entry): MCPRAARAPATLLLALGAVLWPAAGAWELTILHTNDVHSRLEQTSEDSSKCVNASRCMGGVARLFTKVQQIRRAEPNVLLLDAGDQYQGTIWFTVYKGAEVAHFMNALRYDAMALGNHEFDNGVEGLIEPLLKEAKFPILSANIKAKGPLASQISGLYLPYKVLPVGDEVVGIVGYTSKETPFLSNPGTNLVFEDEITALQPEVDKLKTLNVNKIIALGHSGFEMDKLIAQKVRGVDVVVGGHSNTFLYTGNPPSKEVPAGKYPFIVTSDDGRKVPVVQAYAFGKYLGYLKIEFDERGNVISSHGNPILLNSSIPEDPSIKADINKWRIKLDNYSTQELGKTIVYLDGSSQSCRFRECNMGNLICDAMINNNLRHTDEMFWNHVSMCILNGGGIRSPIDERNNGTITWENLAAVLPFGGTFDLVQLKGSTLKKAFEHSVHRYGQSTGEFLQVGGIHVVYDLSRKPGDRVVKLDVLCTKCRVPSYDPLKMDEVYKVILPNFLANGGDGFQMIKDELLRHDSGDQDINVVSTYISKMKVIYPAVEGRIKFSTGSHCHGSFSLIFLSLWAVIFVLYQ

B1: CD39/CD73 bispecific antibody 700038 (CD39-VHH-CD73-IgG) (bispecific antibody)
heavy: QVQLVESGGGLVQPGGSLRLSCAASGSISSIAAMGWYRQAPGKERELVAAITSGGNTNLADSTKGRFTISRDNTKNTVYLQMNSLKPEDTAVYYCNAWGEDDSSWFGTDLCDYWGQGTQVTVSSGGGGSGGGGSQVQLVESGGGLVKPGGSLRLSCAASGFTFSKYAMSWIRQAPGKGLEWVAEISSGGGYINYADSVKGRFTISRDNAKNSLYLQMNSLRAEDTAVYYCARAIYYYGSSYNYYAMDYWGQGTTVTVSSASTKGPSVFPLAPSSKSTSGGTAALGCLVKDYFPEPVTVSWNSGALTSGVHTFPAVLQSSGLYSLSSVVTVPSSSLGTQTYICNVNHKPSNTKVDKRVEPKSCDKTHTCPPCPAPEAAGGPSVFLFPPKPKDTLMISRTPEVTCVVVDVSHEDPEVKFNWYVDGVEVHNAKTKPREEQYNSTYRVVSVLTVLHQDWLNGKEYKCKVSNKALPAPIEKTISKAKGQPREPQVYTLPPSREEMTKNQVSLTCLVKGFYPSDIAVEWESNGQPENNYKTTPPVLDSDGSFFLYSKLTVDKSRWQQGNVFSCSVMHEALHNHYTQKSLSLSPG
light: DIQMTQSPSSLSASVGDRVTITCRASQDVGTAEAWYQQKPGKAPKLLIYWASTRHTGVPSRFSGSGSGTDFTLTISSLQPEDFATYYCQQYSSYPLTFGQGTKLEIKRTVAAPSVFIFPPSDEQLKSGTASVVCLLNNFYPREAKVQWKVDNALQSGNSQESVTEQDSKDSTYSLSSTLTLSKADYEKHKVYACEVTHQGLSSPVTKSFNRGEC
EC50 (µg/mL), inhibition of enzyme activity of soluble CD73 protein (CellTiter Glo) [1]: 1.85 µg/mL

B2: CD39/CD73 bispecific antibody 700035 (CD39-VHH-CD73-IgG) (bispecific antibody)
heavy: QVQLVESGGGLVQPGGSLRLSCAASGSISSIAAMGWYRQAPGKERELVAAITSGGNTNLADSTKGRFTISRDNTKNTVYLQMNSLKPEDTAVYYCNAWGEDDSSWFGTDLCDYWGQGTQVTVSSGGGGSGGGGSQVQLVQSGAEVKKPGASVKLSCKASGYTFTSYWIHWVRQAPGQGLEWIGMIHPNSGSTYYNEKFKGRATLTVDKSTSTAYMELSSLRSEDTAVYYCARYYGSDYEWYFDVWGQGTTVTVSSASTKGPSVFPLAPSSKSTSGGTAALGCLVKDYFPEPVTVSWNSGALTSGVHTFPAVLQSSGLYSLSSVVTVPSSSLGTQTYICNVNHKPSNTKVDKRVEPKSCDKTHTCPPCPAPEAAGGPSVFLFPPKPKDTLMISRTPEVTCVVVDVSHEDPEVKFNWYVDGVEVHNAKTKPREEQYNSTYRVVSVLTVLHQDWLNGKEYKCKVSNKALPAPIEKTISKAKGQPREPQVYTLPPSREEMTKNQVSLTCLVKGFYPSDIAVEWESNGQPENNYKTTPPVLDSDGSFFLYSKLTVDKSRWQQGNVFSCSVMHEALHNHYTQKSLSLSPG
light: DIQMTQSPSSMSASVGDRVTITCKASQNVRTAVVWYQQKPGKAPKALIYLASNRHTGVPDRFSGSGSGTDFTLTISSLQPEDFATYFCLQHWNYPYTFGQGTKLEIKRTVAAPSVFIFPPSDEQLKSGTASVVCLLNNFYPREAKVQWKVDNALQSGNSQESVTEQDSKDSTYSLSSTLTLSKADYEKHKVYACEVTHQGLSSPVTKSFNRGEC
EC50 (µg/mL), inhibition of enzyme activity of membrane CD73 on CHOK1-huCD73-3F4 cells (CellTiter Glo) [2]: 0.615 µg/mL
binding result (Mouse CD73 antigen): no binding (tested: 50 nM (highest antigen concentration))
binding result (Mouse CD39 antigen): no binding (tested: 50 nM (highest antigen concentration))

From patent publication US20250361314A1 (SHANGHAI HUAOTA BIOPHARMACEUTICAL, published 2025)
